This passage reports binding result and Kd results from PMC8224932 (FEBS letters, 2020).

A word on the Kd: it is the concentration at which binding is half-saturated.

No end group written: not given here. TAMRA = carboxytetramethylrhodamine

Assay [1] concerns the target T1, ^15N,^13C-labeled Sin3A PAH1 (mouse, UniProt Q60520 119-195).
T1 sequence (looked up): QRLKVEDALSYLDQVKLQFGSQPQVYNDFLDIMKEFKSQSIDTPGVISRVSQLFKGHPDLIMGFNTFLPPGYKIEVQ
Kind of assay: NMR titration.

Assay [2] concerns the target T2, GST-tagged Sin3A PAH1 (mouse, UniProt Q60520 119-195).
T2 sequence (looked up): T1 sequence (looked up)
Kind of assay: fluorescence polarisation.

Consider EYDNYDELVAKSLLNLGKIAED (peptide, UniProt Q9UL68 193-214, looked up) [Myt1L^193−214 SID peptide (released from MBP)], for which, in assay [1], the binding result is “binds”.

In assay [2], {TAMRA}-EYDNYDELVAKSLLNLGKIAED (peptide, UniProt Q9UL68 193-214, looked up) [TAMRA-conjugated Myt1L^193−214 SID peptide] gave a dissociation constant (Kd) of 6 ± 0.9 µM.
